Results reported in PMC4891089, “The transcription factor GATA1 and the histone methyltransferase SET7 interact to promote VEGF-mediated angiogenesis and tumor growth and predict clinical outcome of breast cancer” (Oncotarget, 2016).

Molecular target: T1, His-tagged GATA1 (UniProt P15976 1-413)
T1 construct: GATA1; also called purified His-tagged GATA1 protein; source: His fusion from pET-28a, expressed and purified according to the manufacturers' instructions (Qiagen)
Test: pull-down; GST pull-down: purified His fusion protein incubated with GST fusion protein bound to GST beads for 4 h at 4°C; immunoblot
Conditions: both partners purified

T1 sequence (P15976 whole entry, the tested form may be a part): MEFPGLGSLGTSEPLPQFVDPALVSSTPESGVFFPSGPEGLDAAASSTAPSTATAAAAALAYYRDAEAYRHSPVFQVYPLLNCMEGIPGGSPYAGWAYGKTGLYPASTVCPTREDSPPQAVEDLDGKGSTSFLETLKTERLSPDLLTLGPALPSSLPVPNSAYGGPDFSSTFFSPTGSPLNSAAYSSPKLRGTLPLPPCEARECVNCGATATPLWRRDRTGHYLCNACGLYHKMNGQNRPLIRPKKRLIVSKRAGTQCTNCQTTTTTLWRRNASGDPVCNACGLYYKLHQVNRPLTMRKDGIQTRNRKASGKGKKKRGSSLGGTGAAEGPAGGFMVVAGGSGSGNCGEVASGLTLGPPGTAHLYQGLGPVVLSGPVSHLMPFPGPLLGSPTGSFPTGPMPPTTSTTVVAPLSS

B1: GST-SET7 (enzyme, UniProt Q8WTS6 1-366, looked up)
chain: MDSDDEMVEEAVEGHLDDDGLPHGFCTVTYSSTDRFEGNFVHGEKNGRGKFFFFDGSTLEGYYVDDALQGQGVYTYEDGGVLQGTYVDGELNGPAQEYDTDGRLIFKGQYKDNIRHGVCWIYYPDGGSLVGEVNEDGEMTGEKIAYVYPDERTALYGKFIDGEMIEGKLATLMSTEEGRPHFELMPGNSVYHFDKSTSSCISTNALLPDPYESERVYVAESLISSAGEGLFSKVAVGPNTVMSFYNGVRITHQEVDSRDWALNGNTLSLDEETVIDVPEPYNHVSKYCASLGHKANHSFTPNCIYDMFVHPRFGPIKCIRTLRAVEADEELTVAYGYDHSPPGKSGPEAPEWYQVELKAFQATQQK
notes: SET7 (SETD7); also called purified GST-SET7; source: GST fusion from pGEX-KG, expressed and purified according to the manufacturers' instructions (Amersham Pharmacia)
- binding result: binds
